B1: GST-GSDMD (full-length human GSDMD) (natural protein)
chain: MGSAFERVVRRVVQELDHGGEFIPVTSLQSSTGFQPYCLVVRKPSSSWFWKPRYKCVNLSIKDILEPDAAEPDVQRGRSFHFYDAMDGQIQGSVELAAPGQAKIAGGAAVSDSSSTSMNVYSLSVDPNTWQTLLHERHLRQPEHKVLQQLRSRGDNVYVVTEVLQTQKEVEVTRTHKREGSGRFSLPGATCLQGEGQGHLSQKKTVTIPSGSTLAFRVAQLVIDSDLDVLLFPDKKQRTFQPPATGHKRSTSEGAWPQLPSGLSMMRCLHNFLTDGVPAEGAFTEDFQGLRAEVETISKELELLDRELCQLLLEGLEGVLRDQLALRALEEALEQGQSLGPVEPLDGPAGAVLECLVLSSGMLVPELAIPVVYLLGALTMLSETQHKLLAEALESQTLLGPLELVGSLLEQSAPWQERSTMSLPPGLLGNSWGEGAPAWVLLDECGLELGEDTPHVCWEPQAQGRMCALYASLALLSGLSQEPH

Columns and labels:
[1] = molecular target: His-tagged SARS-CoV-2 nucleocapsid (SARS-CoV-2, UniProt P0DTC9 1-419); assay: pull-down
[2] = molecular target: Myc-tagged SARS-CoV-2 nucleocapsid (SARS-CoV-2, UniProt P0DTC9 1-419); assay: co-IP
[3] = molecular target: B1; assay: pull-down

| Binder | binding result [1] | also measured |
| --- | --- | --- |
| MMRCLHNFLTDGVPAEGAFT (domain or fragment) [GST-tagged GSDMD linker containing amino acids 265-284] | binds | – |
| B1 | binds | – |
| FLAG-tagged full-length GSDMD (natural protein) MGSAFERVVRRVVQELDHGGEFIPVTSLQSSTGFQPYCLVVRKPSSSWFWKPRYKCVNLSIKDILEPDAAEPDVQRGRSFHFYDAMDGQIQGSVELAAPGQAKIAGGAAVSDSSSTSMNVYSLSVDPNTWQTLLHERHLRQPEHKVLQQLRSRGDNVYVVTEVLQTQKEVEVTRTHKREGSGRFSLPGATCLQGEGQGHLSQKKTVTIPSGSTLAFRVAQLVIDSDLDVLLFPDKKQRTFQPPATGHKRSTSEGAWPQLPSGLSMMRCLHNFLTDGVPAEGAFTEDFQGLRAEVETISKELELLDRELCQLLLEGLEGVLRDQLALRALEEALEQGQSLGPVEPLDGPAGAVLECLVLSSGMLVPELAIPVVYLLGALTMLSETQHKLLAEALESQTLLGPLELVGSLLEQSAPWQERSTMSLPPGLLGNSWGEGAPAWVLLDECGLELGEDTPHVCWEPQAQGRMCALYASLALLSGLSQEPH | – | binding result [2]: binds |
| GST-GSDMD truncation lacking both aa 302-310 and aa 350-368 (natural protein) MGSAFERVVRRVVQELDHGGEFIPVTSLQSSTGFQPYCLVVRKPSSSWFWKPRYKCVNLSIKDILEPDAAEPDVQRGRSFHFYDAMDGQIQGSVELAAPGQAKIAGGAAVSDSSSTSMNVYSLSVDPNTWQTLLHERHLRQPEHKVLQQLRSRGDNVYVVTEVLQTQKEVEVTRTHKREGSGRFSLPGATCLQGEGQGHLSQKKTVTIPSGSTLAFRVAQLVIDSDLDVLLFPDKKQRTFQPPATGHKRSTSEGAWPQLPSGLSMMRCLHNFLTDGVPAEGAFTEDFQGLRAEVETISKELLLLEGLEGVLRDQLALRALEEALEQGQSLGPVEPLDGPAIPVVYLLGALTMLSETQHKLLAEALESQTLLGPLELVGSLLEQSAPWQERSTMSLPPGLLGNSWGEGAPAWVLLDECGLELGEDTPHVCWEPQAQGRMCALYASLALLSGLSQEPH | binds | – |
| GST-GSDMD truncation lacking aa 302-310 (natural protein) MGSAFERVVRRVVQELDHGGEFIPVTSLQSSTGFQPYCLVVRKPSSSWFWKPRYKCVNLSIKDILEPDAAEPDVQRGRSFHFYDAMDGQIQGSVELAAPGQAKIAGGAAVSDSSSTSMNVYSLSVDPNTWQTLLHERHLRQPEHKVLQQLRSRGDNVYVVTEVLQTQKEVEVTRTHKREGSGRFSLPGATCLQGEGQGHLSQKKTVTIPSGSTLAFRVAQLVIDSDLDVLLFPDKKQRTFQPPATGHKRSTSEGAWPQLPSGLSMMRCLHNFLTDGVPAEGAFTEDFQGLRAEVETISKELLLLEGLEGVLRDQLALRALEEALEQGQSLGPVEPLDGPAGAVLECLVLSSGMLVPELAIPVVYLLGALTMLSETQHKLLAEALESQTLLGPLELVGSLLEQSAPWQERSTMSLPPGLLGNSWGEGAPAWVLLDECGLELGEDTPHVCWEPQAQGRMCALYASLALLSGLSQEPH | binds | – |
| GST-GSDMD truncation lacking aa 350-368 (natural protein) MGSAFERVVRRVVQELDHGGEFIPVTSLQSSTGFQPYCLVVRKPSSSWFWKPRYKCVNLSIKDILEPDAAEPDVQRGRSFHFYDAMDGQIQGSVELAAPGQAKIAGGAAVSDSSSTSMNVYSLSVDPNTWQTLLHERHLRQPEHKVLQQLRSRGDNVYVVTEVLQTQKEVEVTRTHKREGSGRFSLPGATCLQGEGQGHLSQKKTVTIPSGSTLAFRVAQLVIDSDLDVLLFPDKKQRTFQPPATGHKRSTSEGAWPQLPSGLSMMRCLHNFLTDGVPAEGAFTEDFQGLRAEVETISKELELLDRELCQLLLEGLEGVLRDQLALRALEEALEQGQSLGPVEPLDGPAIPVVYLLGALTMLSETQHKLLAEALESQTLLGPLELVGSLLEQSAPWQERSTMSLPPGLLGNSWGEGAPAWVLLDECGLELGEDTPHVCWEPQAQGRMCALYASLALLSGLSQEPH | binds | – |
| PSGLSMMRCLHNFLTDGVPAEGAFTEDFQGL (domain or fragment) [GST-tagged GSDMD linker containing amino acids 260-290] | binds | – |
| caspase-1 p20 (C285A)-His / p10-His complex (complex) chain 1: NPAMPTSSGSEGNVKLCSLEEAQRIWKQKSAEIYPIMDKSSRTRLALIICNEEFDSIPRRTGAEVDITGMTMLLQNLGYSVDVKKNLTASDMTTELEAFAHRPEHKTSDSTFLVFMSHGIREGICGKKHSEQVPDILQLNAIFNMLNTKNCPSLKDKPKVIIIQAARGDSPGVVWFKD chain 2: AIKKAHIEKDFIAFCSSTPDNVSWRHPTMGSVFIGRLIEHMQEYACSCDVEEIFRKVRFSFEQPDGRAQMPTTERVTLTRCFYLFPGH | – | binding result [3]: binds |
| HNFLTDGVPAE (domain or fragment) [GST-tagged GSDMD linker containing amino acids 270-280] | binds | – |

Reference: article PMC8420271 (The EMBO Journal, 2021)
